This assay concerns the target human 40S ribosomal subunit (human) (UniProt P62269). Nature of the assay: cryo-EM structure.

“human eIF3 (from UniProt P55884 1-814; Q99613 1-913; O15371 1-548; O75821 1-320; Q13347 1-325) (complex)”: the other is 40%.

For the origin of these results see doi:10.1101/2025.10.04.680434.
